Data: PMC9482650, “Quantitative fragmentomics allow affinity mapping of interactomes” (Nature Communications, 2022)

T1: DFNB31_1, Q9P202
T1 sequence (Q9P202 135-233, limits assumed, looked up): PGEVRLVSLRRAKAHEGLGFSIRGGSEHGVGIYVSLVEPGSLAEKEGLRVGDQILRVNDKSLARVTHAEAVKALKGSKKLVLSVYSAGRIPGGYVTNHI

T2: DVL3, Q92997
T2 sequence (Q92997 244-331, limits assumed, looked up): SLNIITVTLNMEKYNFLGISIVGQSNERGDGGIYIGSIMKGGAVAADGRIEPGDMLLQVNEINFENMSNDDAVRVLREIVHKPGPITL

T3: PDZRN3_1, Q9UPQ7
T3 sequence (Q9UPQ7 244-349, limits assumed, looked up): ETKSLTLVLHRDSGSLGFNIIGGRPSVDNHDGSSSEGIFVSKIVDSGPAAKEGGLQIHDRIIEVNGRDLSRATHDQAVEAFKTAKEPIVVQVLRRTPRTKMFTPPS

T4: MPDZ_12, O75970
T4 sequence (O75970 1857-1958, limits assumed, looked up): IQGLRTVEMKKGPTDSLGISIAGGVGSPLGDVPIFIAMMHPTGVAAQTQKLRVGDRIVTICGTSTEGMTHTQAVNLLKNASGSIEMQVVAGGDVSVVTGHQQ

T5: APBA2_1, Q99767
T5 sequence (Q99767 563-664, limits assumed, looked up): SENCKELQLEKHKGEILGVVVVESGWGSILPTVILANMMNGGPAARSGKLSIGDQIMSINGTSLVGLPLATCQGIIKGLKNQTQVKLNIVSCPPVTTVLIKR

T6: RADIL, Q96JH8
T6 sequence (Q96JH8 971-1071, limits assumed, looked up): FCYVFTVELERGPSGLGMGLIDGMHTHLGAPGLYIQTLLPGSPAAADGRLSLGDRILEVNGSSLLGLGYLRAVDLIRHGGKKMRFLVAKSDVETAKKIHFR

T7: LRRC7, Q96NW7
T7 sequence (Q96NW7 1440-1537, limits assumed, looked up): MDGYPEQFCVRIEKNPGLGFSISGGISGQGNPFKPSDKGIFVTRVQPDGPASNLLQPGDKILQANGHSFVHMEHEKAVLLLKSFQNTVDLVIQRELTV

T8: RHPN1, Q8TCX5
T8 sequence (Q8TCX5 508-602, limits assumed, looked up): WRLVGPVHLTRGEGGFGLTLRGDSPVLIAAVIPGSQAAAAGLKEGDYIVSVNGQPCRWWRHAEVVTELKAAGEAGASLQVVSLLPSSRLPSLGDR

T9: SNTG2, Q9NY99
T9 sequence (Q9NY99 68-166, limits assumed, looked up): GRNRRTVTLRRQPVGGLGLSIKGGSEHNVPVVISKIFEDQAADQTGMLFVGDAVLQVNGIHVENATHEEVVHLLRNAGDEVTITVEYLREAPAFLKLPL

T10: SNTB1, Q13884
T10 sequence (Q13884 107-205, limits assumed, looked up): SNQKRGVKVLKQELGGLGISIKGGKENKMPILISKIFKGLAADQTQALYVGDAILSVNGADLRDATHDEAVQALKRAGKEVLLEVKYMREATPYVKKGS

T11: GRIP1_3, Q9Y3R0
T11 sequence (Q9Y3R0 247-346, limits assumed, looked up): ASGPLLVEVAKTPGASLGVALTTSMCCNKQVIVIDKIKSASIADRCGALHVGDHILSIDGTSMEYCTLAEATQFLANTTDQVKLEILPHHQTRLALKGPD

T12: GRIP1_2, Q9Y3R0
T12 sequence (Q9Y3R0 145-248, limits assumed, looked up): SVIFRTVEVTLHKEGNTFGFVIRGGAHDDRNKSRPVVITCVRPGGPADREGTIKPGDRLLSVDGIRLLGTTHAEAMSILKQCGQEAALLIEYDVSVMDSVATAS


What was measured:
Assay in all cases: holdup assay
Parameters in all cases: key: below the threshold = too weak to quantify, mostly under pKd 3.1 to 4
Conditions in all cases: plain residues with an end cap or a label only (N-terminal biotin on a linker: ado-ado)
[1] = target: SCRIB_3, Q14160
Sequence of SCRIB_3, Q14160 (Q14160 999-1103): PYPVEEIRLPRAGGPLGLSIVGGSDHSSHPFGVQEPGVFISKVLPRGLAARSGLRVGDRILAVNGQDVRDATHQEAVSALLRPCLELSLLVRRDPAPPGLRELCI

[2] = target: Inadl_10, Q8NI35
Sequence of Inadl_10, Q8NI35 (Q8NI35 1673-1763): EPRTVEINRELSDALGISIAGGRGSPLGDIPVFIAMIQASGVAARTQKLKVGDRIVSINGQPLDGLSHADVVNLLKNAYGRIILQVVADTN

[3] = target: PARD3_3, Q8TEW0
Sequence of PARD3_3, Q8TEW0 (Q8TEW0 582-685): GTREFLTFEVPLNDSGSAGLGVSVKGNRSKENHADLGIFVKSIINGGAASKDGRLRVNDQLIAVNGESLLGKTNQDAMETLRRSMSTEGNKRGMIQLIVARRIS

[4] = target: T1, DFNB31_1, Q9P202
[5] = target: MAGI2_3, Q86UL8
Sequence of MAGI2_3, Q86UL8 (Q86UL8 600-682): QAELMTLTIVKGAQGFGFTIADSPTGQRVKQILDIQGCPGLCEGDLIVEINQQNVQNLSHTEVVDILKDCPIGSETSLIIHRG

[6] = target: T2, DVL3, Q92997
[7] = target: MAGI2_5, Q86UL8
Sequence of MAGI2_5, Q86UL8 (Q86UL8 915-1017): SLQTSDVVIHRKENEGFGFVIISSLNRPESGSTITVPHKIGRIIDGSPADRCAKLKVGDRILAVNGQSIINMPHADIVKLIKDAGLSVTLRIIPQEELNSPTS

[8] = target: DLG1_2, Q12959
Sequence of DLG1_2, Q12959 (Q12959 314-412): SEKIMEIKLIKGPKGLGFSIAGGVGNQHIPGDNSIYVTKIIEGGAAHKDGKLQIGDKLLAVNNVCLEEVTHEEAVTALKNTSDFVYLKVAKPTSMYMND

[9] = target: NHERF4_2, Q86UT5
Sequence of NHERF4_2, Q86UT5 (Q86UT5 220-308): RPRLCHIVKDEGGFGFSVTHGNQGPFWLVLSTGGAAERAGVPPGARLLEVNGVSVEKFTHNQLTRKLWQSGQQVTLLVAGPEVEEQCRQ

[10] = target: ARHGEF12, Q9NZN5-2
Sequence of ARHGEF12, Q9NZN5-2 (Q9NZN5 other isoform, or with tags, fused parts or gaps): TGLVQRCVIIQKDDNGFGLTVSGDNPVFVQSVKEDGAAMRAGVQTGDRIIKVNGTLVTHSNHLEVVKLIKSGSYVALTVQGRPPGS

[11] = target: T3, PDZRN3_1, Q9UPQ7
[12] = target: AHNAK1, Q09666
Sequence of AHNAK1, Q09666 (Q09666 4-100): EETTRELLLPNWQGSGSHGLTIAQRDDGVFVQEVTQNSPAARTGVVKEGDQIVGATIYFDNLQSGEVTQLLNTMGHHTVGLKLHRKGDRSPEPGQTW

[13] = target: T4, MPDZ_12, O75970
[14] = target: T5, APBA2_1, Q99767
[15] = target: DLG4_3, P78352
Sequence of DLG4_3, P78352 (P78352 306-403): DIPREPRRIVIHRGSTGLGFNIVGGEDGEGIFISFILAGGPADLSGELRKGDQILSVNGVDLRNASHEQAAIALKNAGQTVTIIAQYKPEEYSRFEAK

[16] = target: SCRIB_1, Q14160
Sequence of SCRIB_1, Q14160 (Q14160 718-814): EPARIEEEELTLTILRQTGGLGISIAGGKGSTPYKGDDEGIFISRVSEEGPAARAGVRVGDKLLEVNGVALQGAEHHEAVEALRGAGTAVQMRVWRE

[17] = target: T6, RADIL, Q96JH8
[18] = target: T7, LRRC7, Q96NW7
[19] = target: T8, RHPN1, Q8TCX5
[20] = target: DLG2_3, Q15700
[21] = target: Inadl_4, Q8NI35
Sequence of Inadl_4, Q8NI35 (Q8NI35 547-651): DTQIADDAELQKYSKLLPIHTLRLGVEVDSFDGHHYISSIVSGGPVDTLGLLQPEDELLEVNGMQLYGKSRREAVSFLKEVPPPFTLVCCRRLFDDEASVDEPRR

[22] = target: T9, SNTG2, Q9NY99
[23] = target: T10, SNTB1, Q13884
[24] = target: T11, GRIP1_3, Q9Y3R0
[25] = target: T12, GRIP1_2, Q9Y3R0

| pKd [1] | pKd [2] | pKd [3] | pKd [4] | pKd [5] | pKd [6] | pKd [7] | pKd [8] | pKd [9] | pKd [10] | pKd [11] | pKd [12] | pKd [13] | pKd [14] | pKd [15] | pKd [16] | pKd [17] | pKd [18] | pKd [19] | pKd [20] | Binder | also measured |
| --- | --- | --- | --- | --- | --- | --- | --- | --- | --- | --- | --- | --- | --- | --- | --- | --- | --- | --- | --- | --- | --- |
| 4.99 | below the threshold | 4.75 | 4.46 | 4.13 | 4.01 | 4.92 | 4.67 | below the threshold | below the threshold | 3.52 | below the threshold | 4.36 | below the threshold | below the threshold | 4.21 | 4.55 | 4.96 | 4.43 | 3.86 | PLPPEEESWV [GAS2L2, Q8NHY3] | pKd [21]: below the threshold; pKd [22]: 4.24; pKd [23]: 4.86; pKd [24]: below the threshold; pKd [25]: 3.8 |
| 3.48 | below the threshold | 3.99 | 3.48 | 4.52 | below the threshold | 5.47 | 4.3 | below the threshold | 3.85 | below the threshold | below the threshold | below the threshold | below the threshold | below the threshold | 3.8 | 5.03 | below the threshold | 4.76 | below the threshold | KIEDVEITLV [FCHSD2, O94868] | pKd [21]: below the threshold; pKd [22]: 3.58; pKd [23]: 3.95; pKd [24]: below the threshold; pKd [25]: below the threshold |
| below the threshold | below the threshold | below the threshold | below the threshold | 3.81 | below the threshold | 4.26 | 3.92 | below the threshold | 4.13 | below the threshold | below the threshold | 3.52 | below the threshold | 4.38 | below the threshold | 4.62 | below the threshold | below the threshold | 4.43 | NISARRFTLC [FAM167B, Q9BTA0] | pKd [21]: below the threshold; pKd [22]: below the threshold; pKd [23]: 3.52; pKd [24]: below the threshold; pKd [25]: below the threshold |
